# Experimental data published in patent US20220267379A1 (published 2022).
# Where two headings read alike, the source gives them in different places. Positions of bridges follow the written chain, without caps; N, C: chain ends. Non-standard residues stand in square brackets, D forms with d. Primed or numbered codes have the meaning given here. Chains are numbered I, II in the order given. No end group written: not given here. *: point of attachment. Palmitoyl = CCCCCCCCCCCCCCCC(=O)*; PEG2″ = not defined here
# T1: FXIIa (Factor XIIa) (human, UniProt P00748 373-615)
# T1 chain: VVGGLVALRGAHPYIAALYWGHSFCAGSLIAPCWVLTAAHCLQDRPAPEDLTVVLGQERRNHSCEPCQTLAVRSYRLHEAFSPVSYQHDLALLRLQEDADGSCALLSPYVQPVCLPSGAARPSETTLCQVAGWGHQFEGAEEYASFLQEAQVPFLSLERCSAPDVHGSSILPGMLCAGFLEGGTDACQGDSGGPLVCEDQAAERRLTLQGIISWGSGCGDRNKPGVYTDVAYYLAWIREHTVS
# B1: KLK5 inhibitor 035-tag (C-terminal albumin tag conjugate of 035) (peptide)
# peptide 1: GCTRQYPCGKG
# peptide 2: EYEK(Palmitoyl)EYE
# modifications: bridge I:2-I:8; not fully specified (N-terminus, C-terminus, bridges); also: albumin tag (chain 2) joined via PEG2 to side chain of Lys10 of chain 1, tag end used not given here, N-terminal fluorescein via PEG2, chain not given here
# B2: N-terminal albumin tag conjugate of KLK5 inhibitor 035 (peptide)
# peptide 1: EYEK(Palmitoyl)EYE[PEG2″]
# peptide 2: GCTRQYPC
# modifications: bridge II:2-II:8; not fully specified (N-terminus, bridges); also: tag C-terminus joined through PEG2 to inhibitor N-terminus (one linear molecule)
# B3: peptide 035 (lead KLK5 inhibitor) (peptide)
# peptide: GCTRQYPC
# modifications: linker 2-8 via 1,3‑dibromoacetone
# B4: SSSKSSS-tag (peptide)
# peptide: SSSKSSS
# modifications: not fully specified (residue 4, N-terminus); also: fluorescein as in the albumin tag
# B5: albumin tag with fluorescein at the C-terminus (tag-F) (peptide)
# peptide: EYEK(Palmitoyl)EYE-fluorescein
# B6: N-terminal albumin tag conjugate of KLK7 inhibitor 096 (peptide)
# peptide 1: EYEK(Palmitoyl)EYE[PEG2″]
# peptide 2: PCLYLARCS
# modifications: bridge II:2-II:8; not fully specified (N-terminus, bridges); also: tag C-terminus joined through PEG2 to inhibitor N-terminus (one linear molecule)
# B7: peptide 035 (peptide)
# peptide: GCTRQYPC
# modifications: linker 2-8 via 1,3‑dibromoacetone
# How the values were obtained:
# [1] = target: T2, mouse serum albumin (MSA) (mouse, UniProt P07724 25-608); experiment: fluorescence polarization
# [2] = target: human serum albumin (HSA) (human, UniProt P02768 25-609); experiment: fluorescence polarization; human serum dilution
# FXIIa (Factor XIIa) = target: T1, FXIIa (Factor XIIa)
# trypsin = trypsin (human); experiment: enzyme inhibition
# [3] = target: human Kallikrein-related peptidase 5 (hKLK5) (human, UniProt Q9Y337 67-293); experiment: enzyme inhibition
# [4] = target: T2, mouse serum albumin (MSA)
# PK = experiment: enzyme inhibition
# uPA = experiment: enzyme inhibition
# thrombin = experiment: enzyme inhibition
# plasmin = experiment: enzyme inhibition
# tPA = experiment: enzyme inhibition
# T2 sequence (P07724 25-608): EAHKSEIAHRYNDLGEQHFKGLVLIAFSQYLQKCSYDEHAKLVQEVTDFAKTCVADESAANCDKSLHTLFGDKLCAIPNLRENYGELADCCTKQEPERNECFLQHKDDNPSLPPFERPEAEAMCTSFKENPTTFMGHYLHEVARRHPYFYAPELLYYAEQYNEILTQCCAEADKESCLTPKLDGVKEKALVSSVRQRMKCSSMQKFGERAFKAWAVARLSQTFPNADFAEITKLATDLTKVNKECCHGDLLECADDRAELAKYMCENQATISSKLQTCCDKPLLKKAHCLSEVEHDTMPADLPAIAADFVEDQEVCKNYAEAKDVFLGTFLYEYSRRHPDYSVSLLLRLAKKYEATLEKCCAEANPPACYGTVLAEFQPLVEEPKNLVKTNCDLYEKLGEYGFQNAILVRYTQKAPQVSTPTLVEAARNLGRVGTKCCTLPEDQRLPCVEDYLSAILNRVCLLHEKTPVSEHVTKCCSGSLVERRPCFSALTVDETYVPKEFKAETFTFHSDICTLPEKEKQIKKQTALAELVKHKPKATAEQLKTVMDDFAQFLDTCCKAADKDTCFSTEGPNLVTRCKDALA
# Chain of human Kallikrein-related peptidase 5 (hKLK5) (Q9Y337 67-293): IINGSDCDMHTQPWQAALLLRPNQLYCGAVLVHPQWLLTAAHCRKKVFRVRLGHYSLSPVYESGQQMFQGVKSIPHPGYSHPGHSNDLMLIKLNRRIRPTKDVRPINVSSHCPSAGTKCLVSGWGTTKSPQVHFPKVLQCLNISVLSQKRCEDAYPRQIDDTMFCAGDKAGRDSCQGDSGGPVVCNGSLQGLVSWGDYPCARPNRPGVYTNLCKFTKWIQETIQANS
binder,measurement,setting,value
B1,Kd,[1],7 µM
B2,Kd,[2],0.118 µM
B3,Ki,FXIIa (Factor XIIa),43 µM
same,Ki,trypsin,60 µM
same,Ki,[3],0.01 µM
B4,Kd,[1],10.1 µM
B5,Kd,[4],7.9 µM
B6,Kd,[2],0.168 µM
B7,Ki,PK,> 100 µM
same,Ki,uPA,> 100 µM
same,Ki,thrombin,> 100 µM
same,Ki,plasmin,> 100 µM
same,Ki,tPA,> 100 µM
